# Article PMC9018508
# Biological target: CD40L (UniProt P29965)
# Assay: SPR
# UniProt P29965, sequence (P29965 116-261): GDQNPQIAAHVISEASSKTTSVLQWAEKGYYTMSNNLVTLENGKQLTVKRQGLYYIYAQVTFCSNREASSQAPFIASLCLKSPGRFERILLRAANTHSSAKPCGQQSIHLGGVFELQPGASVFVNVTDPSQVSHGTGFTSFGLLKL
substance,measurement,value
5c8Ile^L98 → 7-HCAA Fab,Kd,0.0416 µM
